Usually stoichiometry N stands for a count of units in the complex or per binding partner.

From article PMC7723414, “Cryo-EM structure of the calcium release-activated calcium channel Orai in an open conformation” (eLife, 2020) come the findings set out here.

Where only a bound is given, the exact number is not on record here.

Data set [1] has as its target T1, Orai_(H206A) (Drosophila melanogaster Orai, amino acids 133-341, with C224S, C283T and H206A) (Drosophila melanogaster, UniProt Q9U6B8, C224S | C283T | H206A).
T1 construct: construct identical to the one of Hou et al., 2018; Hexameric channel; The atomic model holds amino acids 156-305 except 217-239; also called H206A Orai; purified Orai_(H206A)
Kind of data set: cryo-EM structure; Orai_(H206A) in amphipol A8-35 combined with 19B5 Fab at a molar ratio of 0.78:1 (Fab to Orai monomer), 5 mM CaCl2, 150 mM NaCl, 20 mM Tris pH 8.5, on ice 30 min; single particle analysis. To be noted: both partners purified.

Data set [2] addresses T2, wild-type Orai (amino acids 120-351) with N-terminal mCherry tag (Drosophila melanogaster, UniProt Q9U6B8).
T2 construct: Orai, Drosophila melanogaster, amino acids 120-351; Construct reported in Hou et al., 2018; vector modified from pNGFP-EU; also called Orai-mCherry; source: HEK293, transfected, on intact cells; not shown: mCherry, N-terminal, kept
Kind of data set: live-cell ELISA; intact HEK293 cells transfected with mCherry-tagged Orai constructs or vector; purified 19B5 IgG1 1 uM, 20 min, room temperature; HRP-conjugated secondary antibody, TMB, absorbance at 450 nm. Particulars: one partner purified. A general note: ELISA stands for enzyme-linked immunosorbent assay.

Data set [3] concerns the molecule itself. Kind of data set: cryo-EM structure; Orai_(H206A) in amphipol A8-35 combined with 19B5 Fab at a molar ratio of 0.78:1 (Fab to Orai monomer), 5 mM CaCl2, 150 mM NaCl, 20 mM Tris pH 8.5, on ice 30 min; single particle analysis.

T2 sequence (Q9U6B8 120-351): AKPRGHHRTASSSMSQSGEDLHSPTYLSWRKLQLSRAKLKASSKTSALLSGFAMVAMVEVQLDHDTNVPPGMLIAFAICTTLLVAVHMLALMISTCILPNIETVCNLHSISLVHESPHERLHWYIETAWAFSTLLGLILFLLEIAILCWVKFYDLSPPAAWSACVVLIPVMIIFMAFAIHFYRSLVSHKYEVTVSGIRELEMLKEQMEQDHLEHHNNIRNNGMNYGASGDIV

B1: 19B5 Fab antibody fragment (Fab, V domains shown)
VH: EVQLVESGGGLVQPKGSLKLSCAASGFTFNTYAMHWVRQAPGKGLEWVARIRTKSNNYATYYADSVKDRFTISRDDSQSMLYLQMNNLKTEDTAMYYCVRQKYGNYFDYWGQGTTLTVSS
VL: DVVMTQSQKFMSTSVGDRVSVTCKASQNVGINVAWYQQKPGQSPKALINSASYRNSGVPDRFTGGGSGTDFTLTINNVQSEDLAEYFCQQCNSYPLTFGAGTKLELR
notes: the deposited model PDB 7KR5 holds the variable domains; mouse IgG1; Fab of the mouse monoclonal IgG1 19B5; source: IgG from mouse hybridoma cells, purified by ion exchange, cleaved with papain; Fab purified (Mono S, SEC)
With B1, the “stoichiometry N” value in data set [1] is at most 3 Fabs per channel.

B2: monoclonal antibody 19B5 (mouse IgG1) (antibody, V domains shown)
VH: B1 VH
VL: B1 VL
notes: as the heavy chain of m2 (variable domain in PDB 7KR5), whole mouse IgG1 heavy chain; as the light chain of m2 (variable domain in PDB 7KR5); IgG1; also called 19B5 antibody; Drosophila Orai-19B5 (mouse monoclonal); source: mouse hybridoma cells, purified by ion exchange chromatography
On to B2, for which the binding result in data set [2] is listed as “binds”.

B3: Orai_(H206A) (Drosophila melanogaster Orai, amino acids 133-341, with C224S, C283T and H206A) (domain or fragment, UniProt Q9U6B8 133-341, looked up)
chain: MSQSGEDLHSPTYLSWRKLQLSRAKLKASSKTSALLSGFAMVAMVEVQLDHDTNVPPGMLIAFAICTTLLVAVAMLALMISTCILPNIETVSNLHSISLVHESPHERLHWYIETAWAFSTLLGLILFLLEIAILCWVKFYDLSPPAAWSATVVLIPVMIIFMAFAIHFYRSLVSHKYEVTVSGIRELEMLKEQMEQDHLEHHNNIRNNG
notes: construct identical to the one of Hou et al., 2018; Hexameric channel; The atomic model holds amino acids 156-305 except 217-239; also called H206A Orai; purified Orai_(H206A)
With B3, in data set [3], the “stoichiometry N” value stood at 6 subunits per channel.
